In patent publication US20230408517A1 (BIO TECHNE, published 2023):
Read-outs that look alike come from different tables or passages of the source.

Tests used:
[1] = target: T1, recombinant SARS-CoV-2 spike S1 RBD (R319-F541), C-terminal 6-His (SARS-CoV-2, UniProt P0DTC2 319-541); assay: sandwich dipstick, detector Ab4-AuNP
[2] = target: T2, UK variant RBD (R319-F541 with N501Y), C-terminal 6-His (SARS-CoV-2, UniProt P0DTC2 319-541); assay: sandwich dipstick, detector Ab4-AuNP
[3] = target: T3, SA variant RBD (R319-F541 with K417N, E484K, N501Y), C-terminal 6-His (SARS-CoV-2, UniProt P0DTC2 319-541); assay: sandwich dipstick, detector Ab4-AuNP
[4] = target: T4, BR P.1 variant RBD (R319-F541 with K417T, E484K, N501Y), C-terminal 6-His (SARS-CoV-2, UniProt P0DTC2 319-541); assay: sandwich dipstick, detector Ab4-AuNP
[5] = target: T1, recombinant SARS-CoV-2 spike S1 RBD …; assay: lateral flow NC50, RBD-AuNP vs immobilised ACE2
[6] = target: T2, UK variant RBD (R319-F541 with N501Y), …; assay: lateral flow NC50, RBD-AuNP vs immobilised ACE2
[7] = target: T3, SA variant RBD (R319-F541 with K417N, …); assay: lateral flow NC50, RBD-AuNP vs immobilised ACE2
[8] = target: T4, BR P.1 variant RBD (R319-F541 with …); assay: lateral flow NC50, RBD-AuNP vs immobilised ACE2
[9] = target: T1, recombinant SARS-CoV-2 spike S1 RBD …; assay: lateral flow NC50, RBD-AuNP vs immobilised ACE2; remark: listed apart in the source
[10] = target: T2, UK variant RBD (R319-F541 with N501Y), …; assay: lateral flow NC50, RBD-AuNP vs immobilised ACE2; remark: listed apart in the source
[11] = target: T3, SA variant RBD (R319-F541 with K417N, …); assay: lateral flow NC50, RBD-AuNP vs immobilised ACE2; remark: listed apart in the source
[12] = target: T4, BR P.1 variant RBD (R319-F541 with …); assay: lateral flow NC50, RBD-AuNP vs immobilised ACE2; remark: listed apart in the source
[13] = target: BR P.2 variant RBD (R319-F541 with E484K) (SARS-CoV-2, UniProt P0DTC2 319-541); assay: lateral flow NC50, RBD-AuNP vs immobilised ACE2
[14] = target: K417E RBD (R319-F541 with K417E) (SARS-CoV-2, UniProt P0DTC2 319-541); assay: lateral flow NC50, RBD-AuNP vs immobilised ACE2
[15] = target: L452R RBD (R319-F541 with L452R) (SARS-CoV-2, UniProt P0DTC2 319-541); assay: lateral flow NC50, RBD-AuNP vs immobilised ACE2
[16] = target: IN v1 variant RBD (R319-F541 with L452R, E484Q) (SARS-CoV-2, UniProt P0DTC2 319-541); assay: lateral flow NC50, RBD-AuNP vs immobilised ACE2
[17] = target: T5, IN v2 variant RBD (R319-F541 with L452R, T478K) (SARS-CoV-2, UniProt P0DTC2 319-541); assay: lateral flow NC50, RBD-AuNP vs immobilised ACE2
[18] = target: T478K RBD (R319-F541 with T478K) (SARS-CoV-2, UniProt P0DTC2 319-541); assay: lateral flow NC50, RBD-AuNP vs immobilised ACE2
[19] = target: T1, recombinant SARS-CoV-2 spike S1 RBD …; assay: flow cytometry, blocking of binding to hACE-2 cells
[20] = target: T1, recombinant SARS-CoV-2 spike S1 RBD …; assay: as above; remark: listed apart in the source
[21] = target: T4, BR P.1 variant RBD (R319-F541 with …); assay: as above
[22] = target: T5, IN v2 variant RBD (R319-F541 with …); assay: as above
[23] = target: rSARS2 RBD aa319-541, N439K, C-His (SARS-CoV-2, UniProt P0DTC2 319-541); assay: as above
[24] = target: rSARS2-B.1.1.7 S aa16-1211 2x aa mut., C-His (SARS-CoV-2, UniProt P0DTC2 16-1211); assay: as above
[25] = target: rSARS2-B.1.1.7 S aa16-1211 4x aa mut., C-His (SARS-CoV-2, UniProt P0DTC2 16-1211); assay: as above
[26] = target: rSARS2-B.1.617.2 S aa16-1211 10+4x aa mut., C-His (SARS-CoV-2, UniProt P0DTC2 16-1211); assay: as above
[27] = target: T1, recombinant SARS-CoV-2 spike S1 RBD …; assay: sandwich dipstick, detector Ab5-AuNP
[28] = target: T2, UK variant RBD (R319-F541 with N501Y), …; assay: sandwich dipstick, detector Ab5-AuNP
[29] = target: T3, SA variant RBD (R319-F541 with K417N, …); assay: sandwich dipstick, detector Ab5-AuNP
[30] = target: T4, BR P.1 variant RBD (R319-F541 with …); assay: sandwich dipstick, detector Ab5-AuNP

| Binder | IC50 [5] [µg/mL] | IC50 [6] [µg/mL] | IC50 [7] [µg/mL] | IC50 [8] [µg/mL] | IC50 [9] [µg/mL] | IC50 [10] [µg/mL] | IC50 [11] [µg/mL] | IC50 [12] [µg/mL] | IC50 [13] [µg/mL] | IC50 [14] [µg/mL] | IC50 [15] [µg/mL] | IC50 [16] [µg/mL] | IC50 [17] [µg/mL] | IC50 [18] [µg/mL] | percent blocking [19] [%] | percent blocking [20] [%] | percent blocking [21] [%] | percent blocking [22] [%] | percent blocking [23] [%] | percent blocking [24] [%] | other results |
| --- | --- | --- | --- | --- | --- | --- | --- | --- | --- | --- | --- | --- | --- | --- | --- | --- | --- | --- | --- | --- | --- |
| 1035740 (antibody, V domains shown) VH: EVLLQQSGPELVKPGASVKIPCKASGYTFTDYNMDWVKQSHGKSLEWIGDINPNNGFTIYNQKFKGKATLTVDKSSSTAYMELRSLTSEDTAVYYCAREGYGNYFDYWGQGTTLTVSS VL: DVLLTQSPAILSVSPGERVSFSCRASQSIGTSLHWYQQRTNGSPRLLIKYVSESISGIPSRFSGSGSGTDFTLSINSVESEDIADYYCQQSSSWPTTFGAGTKLELK | 1.43 | 1.35 | 1.83 | 1.4 | 1.43 | 1.35 | 1.83 | 1.4 | 1.48 | 1.09 | 1.17 | 1.79 | 1.61 | 1.21 | 94.6 | 94.6 | 95 | 96.5 | 96 | 94.3 | detection sensitivity [1]: 0.01 µg/mL; detection sensitivity [2]: 0.01 µg/mL; detection sensitivity [3]: 0.01 µg/mL; detection sensitivity [4]: 0.01 µg/mL; percent blocking [25]: 82.1%; percent blocking [26]: 89.6% |
| 1035709 (antibody, V domains shown) VH: EVQLQQSGPELVKPGASVKISCKTSGYTFTEYTMHWVKQSHGKSLEWIGGINPNIVDTGYNQKFKGKATLTVDKSSSTAYMELRSLTSEDSAVYYCARDGYPLYYAMDYWGQGTSVTVSS VL: DIQMTQSPSSLSASLGERVSLTCRASQEISGYLSWLQQKPDGTIKRLIYAASTLDSGVPKRFSGSRSGSDYSLTISSLESEDFADYYCLQYASYPWTFGGGTKLEIK | 0.63 | 1.08 | 0.91 | 0.7 | 0.63 | 1.08 | 0.91 | 0.7 | 0.61 | 0.38 | 0.92 | 0.66 | 2.33 | 1.35 | 94.7 | 94.7 | 90 | 5.3 | 90.8 | 92.1 | detection sensitivity [27]: 0.001 µg/mL; detection sensitivity [28]: 0.001 µg/mL; detection sensitivity [29]: 0.001 µg/mL; detection sensitivity [30]: 0.001 µg/mL; percent blocking [25]: 80.7%; percent blocking [26]: 58.8% |
| 1035762 (antibody, V domains shown) VH: EVQLQQSGPELVKPGASVKISCKTSGYTFTEYTMHWVKQSHGKSLEWIGGINPNNGDTGYNQKFKGKATLTVDKSSSTAYMELRSLTFEDSAVYYCARDGYPLYYAMDYWGQGTSVTVSS VL: DIQMTQSPSSLSASLGERVSLTCRASQEISGYLCWLQQKPDGTIKRLIYAASTLDSAVPKRFSGSRSGSDYSLTISSLESEDFADFYCLQYASYPWTFGGGTKLEIK | 0.69 | 0.95 | 0.7 | 0.69 | 0.69 | 0.95 | 0.7 | 0.69 | 0.85 | 0.49 | 0.73 | 0.77 | 2.57 | 3.77 | 94.1 | 94.1 | 40.5 | 1.5 | 42.7 | 75.7 | detection sensitivity [27]: 0.001 µg/mL; detection sensitivity [28]: 0.001 µg/mL; detection sensitivity [29]: 0.001 µg/mL; detection sensitivity [30]: 0.001 µg/mL; percent blocking [25]: 75.2%; percent blocking [26]: 18.7% |
